Assay results: article PMC9482650, “Quantitative fragmentomics allow affinity mapping of interactomes” (Nature Communications, 2022)

Legend:
Experiment in all cases: holdup assay
Set-up in all cases: key: below the threshold = too weak to quantify, mostly under pKd 3.1 to 4
APBA2_1, Q99767 = molecular target: T1, APBA2_1, Q99767
T1 sequence (Q99767 563-664, limits assumed, looked up): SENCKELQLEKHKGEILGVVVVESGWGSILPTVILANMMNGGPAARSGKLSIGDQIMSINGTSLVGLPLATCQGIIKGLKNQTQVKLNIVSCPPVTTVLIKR

APBA3_1, O96018 = molecular target: T2, APBA3_1, O96018
T2 sequence (O96018 389-490, limits assumed, looked up): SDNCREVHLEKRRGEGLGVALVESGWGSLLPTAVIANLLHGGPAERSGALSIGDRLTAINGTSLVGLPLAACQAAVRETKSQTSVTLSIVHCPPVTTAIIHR

ARHGEF11, O15085 = molecular target: T3, ARHGEF11, O15085
T3 sequence (O15085 42-136, limits assumed, looked up): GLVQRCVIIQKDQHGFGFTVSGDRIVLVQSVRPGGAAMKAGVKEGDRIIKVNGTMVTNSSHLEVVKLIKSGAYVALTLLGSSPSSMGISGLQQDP

CARD11, Q9BXL7 = molecular target: T4, CARD11, Q9BXL7
T4 sequence (Q9BXL7 662-765, limits assumed, looked up): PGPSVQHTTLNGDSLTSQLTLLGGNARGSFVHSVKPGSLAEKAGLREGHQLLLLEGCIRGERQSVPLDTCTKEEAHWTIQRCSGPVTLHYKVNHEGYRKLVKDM

CASK, O14936 = molecular target: CASK, O14936
FRMPD1, Q5SYB0 = molecular target: T5, FRMPD1, Q5SYB0
T5 sequence (Q5SYB0 52-145, limits assumed, looked up): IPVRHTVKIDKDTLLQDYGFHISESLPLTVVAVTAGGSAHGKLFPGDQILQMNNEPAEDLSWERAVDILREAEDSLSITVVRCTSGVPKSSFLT

FRMPD2_1, Q68DX3 = molecular target: FRMPD2_1, Q68DX3
GRIP2_4, Q9C0E4 = molecular target: GRIP2_4, Q9C0E4
GRIP2_7, Q9C0E4 = molecular target: GRIP2_7, Q9C0E4
HTRA3, P83110 = molecular target: T6, HTRA3, P83110
T6 sequence (P83110 354-453, limits assumed, looked up): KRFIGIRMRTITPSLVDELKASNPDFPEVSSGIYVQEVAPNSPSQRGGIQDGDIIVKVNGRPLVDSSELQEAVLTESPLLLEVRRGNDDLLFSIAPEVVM

MAGI1_1, Q96QZ7 = molecular target: MAGI1_1, Q96QZ7
MAGI2_6, Q86UL8 = molecular target: MAGI2_6, Q86UL8
MPP6, Q9NZW5 = molecular target: T7, MPP6, Q9NZW5
T7 sequence (Q9NZW5 125-219, limits assumed, looked up): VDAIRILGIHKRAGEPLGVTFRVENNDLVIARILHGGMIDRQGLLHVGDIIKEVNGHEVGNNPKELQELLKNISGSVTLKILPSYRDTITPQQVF

MPP7, Q5T2T1 = molecular target: T8, MPP7, Q5T2T1
T8 sequence (Q5T2T1 134-230, limits assumed, looked up): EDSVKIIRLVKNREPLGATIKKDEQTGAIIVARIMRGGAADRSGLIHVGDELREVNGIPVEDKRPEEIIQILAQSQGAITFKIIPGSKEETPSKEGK

NHERF3_4, Q5T2W1 = molecular target: T9, NHERF3_4, Q5T2W1
T9 sequence (Q5T2W1 373-468, limits assumed, looked up): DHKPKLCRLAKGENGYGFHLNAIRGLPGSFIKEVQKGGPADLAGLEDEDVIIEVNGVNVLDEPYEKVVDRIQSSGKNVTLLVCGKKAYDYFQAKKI

PDZD7_3, Q9H5P4 = molecular target: T10, PDZD7_3, Q9H5P4
T10 sequence (Q9H5P4 857-944, limits assumed, looked up): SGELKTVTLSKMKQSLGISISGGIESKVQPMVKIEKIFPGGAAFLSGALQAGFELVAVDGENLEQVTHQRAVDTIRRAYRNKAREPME

RHPN1, Q8TCX5 = molecular target: T11, RHPN1, Q8TCX5
T11 sequence (Q8TCX5 508-602, limits assumed, looked up): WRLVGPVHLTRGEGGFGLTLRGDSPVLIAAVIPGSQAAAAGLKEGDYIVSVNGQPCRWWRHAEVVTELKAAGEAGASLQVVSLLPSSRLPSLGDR

SNTA1, Q13424 = molecular target: T12, SNTA1, Q13424
T12 sequence (Q13424 82-180, limits assumed, looked up): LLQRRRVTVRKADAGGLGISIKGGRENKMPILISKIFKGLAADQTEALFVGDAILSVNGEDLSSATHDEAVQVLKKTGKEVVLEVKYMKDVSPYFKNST

SNTG1, Q9NSN8 = molecular target: T13, SNTG1, Q9NSN8
T13 sequence (Q9NSN8 52-150, limits assumed, looked up): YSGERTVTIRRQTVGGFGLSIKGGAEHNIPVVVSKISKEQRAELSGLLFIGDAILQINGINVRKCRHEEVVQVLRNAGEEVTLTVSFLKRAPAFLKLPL

TJP1_2, Q07157 = molecular target: TJP1_2, Q07157
TJP3_3, O95049 = molecular target: T14, TJP3_3, O95049
T14 sequence (O95049 375-456, limits assumed, looked up): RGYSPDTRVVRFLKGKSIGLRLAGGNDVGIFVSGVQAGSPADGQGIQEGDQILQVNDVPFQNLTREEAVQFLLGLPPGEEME

TX1BP3, O14907 = molecular target: T15, TX1BP3, O14907
T15 sequence (O14907 10-122, limits assumed, looked up): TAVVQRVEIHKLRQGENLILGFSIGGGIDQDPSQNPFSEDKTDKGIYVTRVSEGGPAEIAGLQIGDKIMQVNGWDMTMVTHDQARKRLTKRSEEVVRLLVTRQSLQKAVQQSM

[1] = plain residues with an end cap or a label only (N-terminal biotin on a linker: ahx)
[2] = plain residues with an end cap or a label only (N-terminal biotin on a linker: ado-ado)

Chain of MAGI2_6, Q86UL8 (Q86UL8 1141-1229): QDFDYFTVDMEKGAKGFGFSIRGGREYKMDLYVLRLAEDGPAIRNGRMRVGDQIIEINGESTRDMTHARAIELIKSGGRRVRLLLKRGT
Chain of TJP1_2, Q07157 (Q07157 181-274): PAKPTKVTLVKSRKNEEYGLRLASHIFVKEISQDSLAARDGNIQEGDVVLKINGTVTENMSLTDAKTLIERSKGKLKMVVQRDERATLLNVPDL
Chain of CASK, O14936 (O14936 487-570): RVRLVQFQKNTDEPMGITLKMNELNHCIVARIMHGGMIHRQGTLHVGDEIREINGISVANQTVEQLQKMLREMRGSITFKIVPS
Chain of MAGI1_1, Q96QZ7 (Q96QZ7 1-106): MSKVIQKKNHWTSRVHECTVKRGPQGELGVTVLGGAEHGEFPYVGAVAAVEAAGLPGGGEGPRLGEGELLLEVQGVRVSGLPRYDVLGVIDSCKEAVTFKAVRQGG
Chain of GRIP2_7, Q9C0E4 (Q9C0E4 934-1023): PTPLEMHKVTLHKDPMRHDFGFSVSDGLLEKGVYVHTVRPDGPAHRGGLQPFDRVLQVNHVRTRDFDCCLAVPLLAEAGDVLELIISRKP
Chain of GRIP2_4, Q9C0E4 (Q9C0E4 446-548): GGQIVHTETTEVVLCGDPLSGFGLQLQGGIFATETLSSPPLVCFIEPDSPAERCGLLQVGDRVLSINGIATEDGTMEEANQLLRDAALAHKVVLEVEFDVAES
Chain of FRMPD2_1, Q68DX3 (Q68DX3 770-861): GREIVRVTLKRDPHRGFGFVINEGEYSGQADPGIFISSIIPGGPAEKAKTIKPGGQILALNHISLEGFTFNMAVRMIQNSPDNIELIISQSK

## EKQAKGDTEF [CACYBP, Q9HB71]
APBA2_1, Q99767; [1]
  pKd: below the threshold
APBA3_1, O96018; [1]
  pKd: below the threshold
ARHGEF11, O15085; [1]
  pKd: below the threshold
CARD11, Q9BXL7; [1]
  pKd: below the threshold
CASK, O14936; [1]
  pKd: below the threshold
FRMPD1, Q5SYB0; [1]
  pKd: below the threshold
FRMPD2_1, Q68DX3; [1]
  pKd: below the threshold
GRIP2_4, Q9C0E4; [1]
  pKd: below the threshold
GRIP2_7, Q9C0E4; [1]
  pKd: below the threshold
HTRA3, P83110; [1]
  pKd: below the threshold
MAGI1_1, Q96QZ7; [1]
  pKd: below the threshold
MAGI2_6, Q86UL8; [1]
  pKd: below the threshold
MPP6, Q9NZW5; [1]
  pKd: below the threshold
MPP7, Q5T2T1; [1]
  pKd: below the threshold
NHERF3_4, Q5T2W1; [1]
  pKd: below the threshold
PDZD7_3, Q9H5P4; [1]
  pKd: below the threshold
RHPN1, Q8TCX5; [1]
  pKd: below the threshold
SNTA1, Q13424; [1]
  pKd: below the threshold
SNTG1, Q9NSN8; [1]
  pKd: below the threshold
TJP1_2, Q07157; [1]
  pKd: below the threshold
TJP3_3, O95049; [1]
  pKd: below the threshold
TX1BP3, O14907; [1]
  pKd: below the threshold

## SLNANEVEWF [RNF130, Q86XS8]
APBA2_1, Q99767; [2]
  pKd: 3.61
APBA3_1, O96018; [2]
  pKd: 3.55
ARHGEF11, O15085; [2]
  pKd: 3.96
CARD11, Q9BXL7; [2]
  pKd: below the threshold
CASK, O14936; [2]
  pKd: below the threshold
FRMPD1, Q5SYB0; [2]
  pKd: below the threshold
FRMPD2_1, Q68DX3; [2]
  pKd: below the threshold
GRIP2_4, Q9C0E4; [2]
  pKd: below the threshold
GRIP2_7, Q9C0E4; [2]
  pKd: 3.94
HTRA3, P83110; [2]
  pKd: 4.68
MAGI1_1, Q96QZ7; [2]
  pKd: below the threshold
MAGI2_6, Q86UL8; [2]
  pKd: 3.81
MPP6, Q9NZW5; [2]
  pKd: 4.05
MPP7, Q5T2T1; [2]
  pKd: 3.53
NHERF3_4, Q5T2W1; [2]
  pKd: below the threshold
PDZD7_3, Q9H5P4; [2]
  pKd: 4.15
RHPN1, Q8TCX5; [2]
  pKd: 3.5
SNTA1, Q13424; [2]
  pKd: below the threshold
SNTG1, Q9NSN8; [2]
  pKd: below the threshold
TJP1_2, Q07157; [2]
  pKd: 4.2
TJP3_3, O95049; [2]
  pKd: 3.6
TX1BP3, O14907; [2]
  pKd: below the threshold

## TRKRSGEAAV [PFKM, P08237]
APBA2_1, Q99767; [2]
  pKd: below the threshold
APBA3_1, O96018; [2]
  pKd: below the threshold
ARHGEF11, O15085; [2]
  pKd: below the threshold
CARD11, Q9BXL7; [2]
  pKd: below the threshold
CASK, O14936; [2]
  pKd: below the threshold
FRMPD1, Q5SYB0; [2]
  pKd: below the threshold
FRMPD2_1, Q68DX3; [2]
  pKd: 4
GRIP2_4, Q9C0E4; [2]
  pKd: below the threshold
GRIP2_7, Q9C0E4; [2]
  pKd: below the threshold
HTRA3, P83110; [2]
  pKd: below the threshold
MAGI1_1, Q96QZ7; [2]
  pKd: below the threshold
MAGI2_6, Q86UL8; [2]
  pKd: below the threshold
MPP6, Q9NZW5; [2]
  pKd: below the threshold
MPP7, Q5T2T1; [2]
  pKd: below the threshold
NHERF3_4, Q5T2W1; [2]
  pKd: below the threshold
PDZD7_3, Q9H5P4; [2]
  pKd: 3.88
RHPN1, Q8TCX5; [2]
  pKd: below the threshold
SNTA1, Q13424; [2]
  pKd: below the threshold
SNTG1, Q9NSN8; [2]
  pKd: below the threshold
TJP1_2, Q07157; [2]
  pKd: below the threshold
TJP3_3, O95049; [2]
  pKd: below the threshold
TX1BP3, O14907; [2]
  pKd: 4.07

## KPGKGSETVV [FZD4, Q9ULV1]
APBA2_1, Q99767; [2]
  pKd: below the threshold
APBA3_1, O96018; [2]
  pKd: below the threshold
ARHGEF11, O15085; [2]
  pKd: 3.69
CARD11, Q9BXL7; [2]
  pKd: below the threshold
CASK, O14936; [2]
  pKd: below the threshold
FRMPD1, Q5SYB0; [2]
  pKd: below the threshold
FRMPD2_1, Q68DX3; [2]
  pKd: 3.54
GRIP2_4, Q9C0E4; [2]
  pKd: below the threshold
GRIP2_7, Q9C0E4; [2]
  pKd: below the threshold
HTRA3, P83110; [2]
  pKd: below the threshold
MAGI1_1, Q96QZ7; [2]
  pKd: below the threshold
MAGI2_6, Q86UL8; [2]
  pKd: below the threshold
MPP6, Q9NZW5; [2]
  pKd: below the threshold
MPP7, Q5T2T1; [2]
  pKd: below the threshold
NHERF3_4, Q5T2W1; [2]
  pKd: below the threshold
PDZD7_3, Q9H5P4; [2]
  pKd: 4.67
RHPN1, Q8TCX5; [2]
  pKd: 3.89
SNTA1, Q13424; [2]
  pKd: 4.6
SNTG1, Q9NSN8; [2]
  pKd: 3.91
TJP1_2, Q07157; [2]
  pKd: below the threshold
TJP3_3, O95049; [2]
  pKd: below the threshold
TX1BP3, O14907; [2]
  pKd: below the threshold
